# Test results taken from article PMC3360202.
# B1: FLSbind (dsDNA)
# DNA 1: GAGTTTCTGGTAGGTGCGTCGTACGGCCAG
# DNA 2: CTGGCCGTACGACGCACCTACCAGAAACTC
# B2: comp1 (dsDNA)
# DNA 1: CTATTACTCGTTAGTTGGATTTTAGTTT
# DNA 2: AAACTAAAATCCAACTAACGAGTAATAG
# B3: APB1 (dsDNA)
# DNA 1: GATCCGGGTCAGTGTACCTACCAACCTTAAACAC
# DNA 2: GATCGTGTTTAAGGTTGGTAGGTACACTGACCCG
# B4: comp3 (dsDNA)
# DNA 1: TAGATGTGATTCGTTAGGTGTGTTTTTATAA
# DNA 2: TTATAAAAACACACCTAACGAATCACATCTA
# B5: comp2 (dsDNA)
# DNA 1: CCAAGTCAAAATCCAACCATTATCTCTTGA
# DNA 2: TCAAGAGATAATGGTTGGATTTTGACTTGG
# Experiments:
# P1MYB (N6His-ZmP1MYB) [1] = target: T1, P1MYB (N6His-ZmP1MYB) (Zea mays, UniProt P27898 9-116); assay: EMSA
# T1 sequence (P27898 9-116): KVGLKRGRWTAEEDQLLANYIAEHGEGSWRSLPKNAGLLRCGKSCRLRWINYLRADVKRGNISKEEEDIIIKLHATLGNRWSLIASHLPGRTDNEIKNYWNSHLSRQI
# P1MYB (N6His-ZmP1MYB) [2] = target: T1, P1MYB (N6His-ZmP1MYB); assay: competition
# P1MYB (N6His-ZmP1MYB) [3] = target: T1, P1MYB (N6His-ZmP1MYB); assay: EMSA; remark: listed apart in the source
binder,measurement,setting,value
B1,binding result,P1MYB (N6His-ZmP1MYB) [1],binds
B2,binding result,P1MYB (N6His-ZmP1MYB) [2],binds
B3,binding result,P1MYB (N6His-ZmP1MYB) [3],binds
B4,binding result,P1MYB (N6His-ZmP1MYB) [2],binds
B5,binding result,P1MYB (N6His-ZmP1MYB) [2],binds
